The values below are quoted from earlier work in publication PMC7369927.

Like-named read-outs stand apart in the source and are kept apart here.

For series [1], the target named is AT1 receptor (UniProt P30556).
Series [2] deals with AT1 receptor (UniProt P30556). This is another data set of the same source.

Sequence of UniProt P30556 (P30556 whole entry): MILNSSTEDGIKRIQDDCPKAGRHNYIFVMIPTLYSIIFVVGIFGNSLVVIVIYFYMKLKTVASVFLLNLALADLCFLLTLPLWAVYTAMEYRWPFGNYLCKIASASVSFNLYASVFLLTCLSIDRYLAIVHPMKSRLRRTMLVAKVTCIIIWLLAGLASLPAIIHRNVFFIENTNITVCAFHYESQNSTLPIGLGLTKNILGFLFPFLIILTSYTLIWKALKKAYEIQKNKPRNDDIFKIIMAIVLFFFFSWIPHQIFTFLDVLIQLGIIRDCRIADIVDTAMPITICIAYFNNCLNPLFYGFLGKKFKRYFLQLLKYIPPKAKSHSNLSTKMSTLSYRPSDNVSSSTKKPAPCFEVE

For Ang II (from UniProt P01019), the Kd (in general, the free concentration of one partner at which half of the binding sites on the other are occupied at equilibrium, for simple one-to-one binding) with AT1 receptor [1] was 0.002 µM.
In the case of Ang-(1-7) (from UniProt P01019), the Kd in the series with AT1 receptor [2] is 0.2 µM.
